# The RNAGym collection of RNA variant scans (doi:10.1073/pnas.2313332121)
# B1: TPR t1 (parent)
# chain: GACCAAUCUGCCCUCAGAGCUCGAGAACAUCUUCGGAUGCAGAGGAGGCAGGCUUCGGUGGCGCGAUAGCGCCAACGUCCUCAACCUCCAAUGCAUCCCACCACAUGAUGAUGCCUGAAGAGCCUUGGUUUUUUG
# Variants of: B1
# Assay: polymerase ribozyme fitness, log enrichment relative to wild type (log ratio); higher = more active; in vitro selection for triplet polymerase activity
# Procedure, shortened: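 Both subunits of a heterodimeric triplet polymerase ribozyme were given their own mutant library, built by PCR and transcribed. Each library was annealed with a biotinylated primer, the partner subunit and triplets, incubated frozen at −7 °C, and its extended constructs gel-excised, captured on streptavidin beads and amplified by RT-PCR, all in one round done in triplicate. Fitness is the logarithm of genotype enrichment relative to wild-type enrichment, with replicates averaged by inverse-variance weighting. That logarithm is base 2, and Illumina-sequenced genotypes needed ≥10 input reads and ≥1 read per output.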
row,Variant,polymerase ribozyme fitness (log ratio)
1,GACCAAUCUGCCCUCAGAGCUCGAGUACAUCUUCGGAUGCAGAGGAGGAAGGCUUCGGUAGCGCGAUAGCGCCAACGUCCUCAACCUCCAAUGCAUCCCACCACAUGAUAAUGCCUGAAGAGCCUUGGUUUUUUG [A26U C49A G60A G110A],-4.81
2,GACCAAUCUGCCCUCAGAGCUCGAGUACAUGUUCGGAUGCAGGGGAGGCAGGCUUCGGUGGCGCGAUAGCGCCAACGUCCUCAACCUCAAAUGCAUCCCACCACAUGAUGAUGCCUGAAGUGCCUUGGUUUUUUG [A26U C31G A43G C89A A121U],-7.24
3,GACCAAUCUGCCCUCAGAGCUCGAGUACAUCUUCGGAUCCAGAGGAGGCAGGCUUCGGUGACGCGAUAGCGCCAACGUCCUCUACCUCCAAUGCAUCCCACCACAUGAUAAUGCCUGAAGGGCCUUGGUUUUUUG [A26U G39C G61A A83U G110A A121G],-5.04
4,GACCAAUCUGCCCUCAGAGCUCGAGUACAUCUUCGGAUGCAGAGGAGGCAGGUUUCGGUGGCGCGAUAGCGCCAACGUCCUCAACCUCCAAUGCAUCCCACCACAUGAUGAUGCCGGAAGAGCCUUGGUUUUUUG [A26U C53U U116G],-6.15
5,GACCAAUCUGCCCUCAGAGCUCGAGUACAUCUUCGGAUGCAGAGGAGGCAGGCUUCGGUGGUGCGAUAGCGCCAACGUCCUCCACCUCCAAUGCAUCCCACCAGCUGAUGAUGUCUGAAGAGCCUUGGAUUUUUG [A26U C62U A83C C104G A105C C114U U129A],-7.45
6,GACCAAUCUGCCCUCAGAGCUCGAGUACAUCUUCGGAUGCAGAGGAGGCAGGCUUCGGUGGCGCGAUAGCGCCAACGUCCUCAAUCUCCAAUGCAUCCCACCACAUGAUGAUGCCUGAAGAGACUUGGUUUUUUG [A26U C85U C123A],-3.83
7,GACCAAUCUGCCCUCAGAGCUCGAGUACAUCUUCGGAUGCAUAGGAGGCAGGCUUCAGUGGCGCGAUAGCGCCAACGGCCUCAACCUCCAAUGCAUCCCACCACAAGAUGAUGCCUGAAGAGCCUUGGUUUUUUG [A26U G42U G57A U78G U106A],-5.03
8,GACCAAUCUGCCCUCAGAGCUCGAGUACAUCUUCGGAUGCAGAGGAGGCAGGCUUCGGUGGCGCGAUAGCGCCAACGUCCUCAACCUCCAAUGCAUACCACCACAUGAUGAUGCCUGAAGUGCCUUGGUUUUUUG [A26U C97A A121U],-5.2
9,GACCAAUCUGCCCUCAGAGCUCGAGUACAUCUUCGGAUGCAGAGGAGGCAGGCUUCGGUGGCGCGAUAGCGCCAACGUCCUCAACAUCCAAUGCAUCCCACCACAUGAUAAUGCCUGAAGAGCCUUGGUUUUUUG [A26U C86A G110A],-5.7
10,GACCAAUCUGCCCUCAGAGCUCGAGUACAUCUUCGGAUGCAGAGGAGGCAGGCUUCGGUGGCGCGAUAGUGCCAACGUCCUCAACCUCCAAUGCAUCCCACCACAUGAUGAUGUCUGAAGAGCCUUGGUUUUUUG [A26U C70U C114U],-7.55
11,GACCAAUCUGCCCUCAGAGCUCGAGUACAUCUUCGGAUGCAGAGGAGGCAGGCUUCGGUGGCGCGAUAGCGCAAACGUCCUCAACCUCCAAUGCAUCCCACCACAUGAUGAUGCCUGAAGAGCCUUGGUUUUUUG [A26U C73A],-2.82
12,GACCAAUCUGCCCUCAGAGCUCGAGUACAUCUUCGGAUGCAGAGGAGGUAGGCUUCGGUGGCGCGAUAGCGCCAACGUCCUCACCCUCCAAUGCAUCCCACCACAUGAUGAUGCCUGAAGAGCGUUGGUUUUUUG [A26U C49U A84C C124G],-2.34
13,GACCAAUCUGCCCUCAGAGCUCGAGUACAUCUUCGGAUGCAGAGGAGGCAGGCUUGGGUGGCGCGAUAUCGCCAACGUCCUCAACCUCCAAUGCAUCCCACCACAUGAUGAUGCCUGAAGAGCCUUGGUUUUUUG [A26U C56G G69U],-2.73
14,GACCAAUCUGCCCUCAGAGCUCGAGUACAUCUUCGGAUACAGAGGAGGCAGGCUUCGGUGGCGCGAUAGCGCCAACGUCCUCAACCUCCAAUGCAUCCCACCACAUGAUGAUGCCUGAACAGCAUUGGUUUUUUA [A26U G39A G120C C124A G135A],-3.54
15,GACCAAUCUGCCCUCAGAGCUCGAGUACAUCUUCGGAUGCAGAGGAGGCAGGCUUAGGUGGCGCGAUAGCGCCAACGUCCUCAACCUCCAAUGCAUCCCACCACAUGAUGAUGCCUGAAGAGCCUUGGUUUUUUG [A26U C56A],-4.03
16,GACCAAUCUGCCCUCAGAGCUCGAGUACAUCUUCGGAUGCAGAGGAGGCAGGCUUUGGUGGCGCGAUAGCGCCAACGUCCUCAACCUCCAAUGCAUCCCACCACAUGAUGAUGCCUGAAGAGCCUUGGUUUUUUG [A26U C56U],-3.38
17,GACCAAUCUGCCCUCAGAGCUCGAGUACAUCUUCGGAUGCAGAGGAAGCAGGCUUCGGUGGCGCGAUAGCGCCAACGUCCUCAACGUCCAAUGCAUCCCACCACAUGAUGAUGCCUGAAGAGCCUUGGUUUUUUG [A26U G47A C86G],-2.67
18,GACCAAUCUGCCCUCAGAGCUCGAGUACAUCUUCGGAUGCAGAGGAGGCAGGCUUCGGUGGCGCGAUAGCGCCAACGUCCUCAACCUCCAAUGCAUCCCACCACAUGAUGAUGCCUGCAGAGUCUUGGUUUUUUG [A26U A118C C123U],-3.12
19,GACCAAUCUGCCCUCAGAGCUCGAGUACAUCUUCGGAUGAAGAGGAGGCAGGCUUCGGUCGCGCGAUAGCGCCAACGUCCUCAACCUCCAAUGCAUCCCACCACAUGAUGAUGCCUGAAGAGCCUUGGUUUUUUG [A26U C40A G60C],-6.14
20,GACCAAUCUGCCCUCAGAGCUCGAGUACAUCUUCGGAUGCAGAGGAGGCAGGCUUCGGUGGCGCGAUAGCGCCAACGUCCUCAACCUACAAUGCAUCCCACCACAUGAUGAUGCCUGAUGAGCCUUGGUUUUUUG [A26U C88A A119U],-4.48
21,GACCAAUCUGCCCUCAGAGCUCGAGUACAUCUUCGGAUGCAGAGGAGGCAGGGUUCGGUAGCGCGAUAGCGCCAACGUCUUCAACCUCCAAUGCAUCCCACCACAUGAUGAUGCCUGAAGAGCCUUGGUUUUUUG [A26U C53G G60A C80U],-4.36

row,Variant,polymerase ribozyme fitness (log ratio)
1,GACCAAUCUGCCCUCAGAGCUCGAGUACAUCUUCGGAUGCAGAGGAGGCAGGGUUCGGUGGCGCGAUAGCGCUAACGUCCUCAACCUCCAAUGCAUCCCUCCACAUGAUGAUGCCUGAAGAGCCUUGGUUUUUUG [A26U C53G C73U A100U],-4.47
2,GACCAAUCUGCCCUCAGAGCUCGAGUACAUCUUCGGAUGCAGAGGAGGCAGGUUUCGGUGGCGCGAUAGCGCCAACGUCCUCAACCUCCAAUGCUUCCCACCACAUGAUGAUACCUGAAGAGCCUUGGUUUUUUG [A26U C53U A95U G113A],-6.17
3,GACCAAUCUGCCCUCAGAGCUCGAGUACAUCUUCGGAUGCAGAGGAGGCAGGCUUCGGUGGCGCGAUAGCGCCAACGUCCUCAACCUACAAUGCAUCCCACCACAUGAUGAUGCCUGAAGAGCCUUGGUUUUUUG [A26U C88A],-3.45
4,GACCAAUCUGCCCUCAGAGCUCGAGUACAUCUUAGGAUGUAGAGGAGGCAGGCUUCGGUGGCGCGAUAGCGCCAACGUCCUCAACCUCCAAUGCAUCCCACCACAUGAUUAUGCCUGAAGAGCCUUGGUUUUUUG [A26U C34A C40U G110U],-6.16
5,GACCAAUCUGCCCUCAGAGCUCGAGUACAUCUUCGGAUGCAGAGGAGGCAGGCUUCGGUGGCGUGAUAGCGCCAACGUCCUCAACCUCCAAUGCAUCCCACCACAUGAUGAUGCCUGGAGAGCCUUGGUUUUUUG [A26U C64U A118G],-3.85
6,GACCAAUCUGCCCUCAGAGCUCGAGUACAUCUUCGGAUGCAGAGGAGGUAGGCCUCGGUGGCGCGAUAGCGCCAACGUCCUCAACCUCCAAUCCAUCCCACCACAUGAUGAUGCCUGAAGAGCCUUGGUUUUUUG [A26U C49U U54C G93C],-5.34
7,GACCAAUCUGCCCUCAGAGCUCGAGUACAUCUUCGGAUGCAGAGGAGGCAGGCUUCGGUGGCGCGAUAGCGGCAACGUCCUCAACCUCCAAUGCAUCCCACCACAUGAUGAUGCCUGAAGAGCCUUGGUUUUUUG [A26U C72G],-3.37
8,GACCAAUCUGCCCUCAGAGCUCGAGUACAUCUUCGGAUGCAGAGGAGGCAGGAUUCGGUGCCGCGAUAGCGCCAACGACCUCAACCUCCAAUGCAUCCCACCACAUGAUAAUGCCUGAAGAGCCUUGGUUUUUUG [A26U C53A G61C U78A G110A],-5.96
9,GACCAAUCUGCCCUCAGAGCUCGAGUACAUCUUCGGAUGCAGAGGAGGCAGGCUUCGGUGGCGCGAUAGCGCCAACGUCCUCAACCUCCAAUGCAUCCCACCACAUGAUGAUGCCUGAAGAGCAUUGGUUUUUUG [A26U C124A],-0.634
10,GACCAAUCUGCCCUCAGAGCUCGAGUACAUCUUCGGAUGCAGAGGAGGCAGGCUUCGGUGGCGUGAUAGCGCCAACGUCCUCAACCUCCAAUGCAUCCCACCACAUGAUGAUGCCUGAAGAGCCUUGGUUUUUUG [A26U C64U],-3.52
11,GACCAAUCUGCCCUCAGAGCUCGAGUACAUCUUAGGAUGCAGAGGAGGCAGGCUUCGGUGGCCCGAUAGCGCCAACGUCCUCAACCUCCAAUGCAUCCCACCACAUGAUGAGGCCUGAAGAGCCUUGCUUUUUUG [A26U C34A G63C U112G G128C],-7.83
12,GACCAAUCUGCCCUCAGAGCUCGAGUACAUCUUCGCAUGCAGAGGAGGCAGGCUUCGGUGUCGCGAUAGCGCCAACGUCCACAACCCCCAAUGCAUCCCACCACAUGAUGAUGCCUGAACAGCCUUGGUUUUUUG [A26U G36C G61U U81A U87C G120C],-4
13,GACCAAUCUGCCCUCAGAGCUCGAGUACAUCUUCGGAUGCAGAGGAGGCAGGCUUCGGUGGCGUGAUAGCGCCAACGUCCUAAACCUCCAAUACAUCCCACCACAUGAUGAUGCCUGAAGAGCCUUGGUUUUUUG [A26U C64U C82A G93A],-4.48
14,GACCAAUCUGCCCUCAGAGCUCGAGUACAUCUUCGGAUGCAGAGGAGGCAGGCUUCGGUGGCGCGAUAGCGCCAACGUCCUUAACCUCCAAUGCAUCCCACCACAUGAUGAUGCCUGAAGAGCCUUGGUUUUUUG [A26U C82U],-3.73
15,GACCAAUCUGCCCUCAGAGCUCGAGUACAUCUUCGGAUGCAGAGGAGGGAGGCUUCGGUGGCGCGAUAGCGCCAACGUCCUCAACCUCCAAUGCAUCCCACCACAUGAUGAUGCCUGAAGAGCCUUGGUUUUUUG [A26U C49G],-3.57
16,GACCAAUCUGCCCUCAGAGCUCGAGUACAUCUUCGGAUGCAGAGAAGGCAGGCUUCGGUGGCGCGAUAGCGCCAACUUCCUCAACCUCCAAUGCAUCCCACCACAUGAUGAUGCCUGAAGAGCCUUGGUUUUUUG [A26U G45A G77U],-3.48
17,GACCAAUCUGCCCUCAGAGCUCGAGUACAUCUUUGGAUGCAGAGGAGGCAGGCUUCGGCGGCGCGAUAGCGCCAACGUCCUCAAACUCCAAUGCAUCCCACCACAUGAUGAUACCUGAAGAGCCUUUGUUUUUUG [A26U C34U U59C C85A G113A G127U],-6.04
18,GACCAAUCUGCCCUCAGAGCUCGAGUACAUCUUCGGAUGCAGAGGAGGCAGGCUUCGGUGGCGCGAUAGCGCCAACGUCCUCAACCUCCAAUGCAUCCCACAACAUGAUGAUGCCUGAAGAGCCUUGGUUUUUUG [A26U C102A],-5.29
19,GACCAAUCUGCCCUCAGAGCUCGAGUACAUCUUCGGAUGCAGAGGAGGCAGGCUUCGGUGGCGCGAUAGCGCCAACGUCCUCAACCUCCAAUGCAUCCCACCACAUGAUGAUGCCUGAAGAGACUUGGUUUUUUG [A26U C123A],-2.9
20,GACCAAUCUGCCCUCAGAGCUCGAGUACAUCUUCGGAUGCAGAGGAGGCAGGGUUCGGUGGCGCGAUAGCGCCAACGUCUUCAACCUCCAAUGCAUCCCACCACAUGAUGAUGCCUGAAGAGCCUUGGUUUUUUG [A26U C53G C80U],-3.08
21,GACCAAUCUGCCCUCAGAGCUCGAGUACAUCUUCGGAUGCAGAGGAGGCAGGCUUCGGUGGCGAGAUAGCGCCAACGUCCUCAACCUCCAAUGCAUCCCACCACAUGAUGAUGCUUGAAGAGCCUUGGUUUUUUG [A26U C64A C115U],-6.23
